These results are taken from US6413935.

The term IC50 denotes the concentration that gives 50% inhibition. A lower IC50 goes with inhibition by little substance.

Non-standard residues stand in square brackets, D forms with d. No end group written: not given here. Cha = N[C@@H](CC1CCCCC1)C(=O)O; 14 = not defined here

Test [1] concerns the target T1, HLA-DR5 (DRB1*11011), purified from cell line SWEIG (human).
T1 chain 1: not shown
T1 chain 2: not shown
In words: competition vs 125I-peptide, purified class II MHC.

In test [2] the target is T2, HLA-DR4w4 (DRB1*0401), purified from cell line PREISS (human).
T2 chain 1: not shown
T2 chain 2: not shown
In words: competition vs 125I-peptide, purified class II MHC.

Test [3] concerns the target HLA-DR1 (DRB1*0101), purified from LG2 cells (human). The experiment in a line: 125I-peptide inhibition, purified class II.
The target in test [4] is T3, HLA-DR3 (DRB1*0301), purified from cell line MAT (human).
T3 chain 1: not shown
T3 chain 2: not shown
The experiment in a line: competition vs 125I-peptide, purified class II MHC.

The target of test [5] is T4, HLA-DR3 (DRB1*0301), purified from MAT cells (human).
T4 chain 1: not shown
T4 chain 2: not shown
The experiment in a line: 125I-peptide inhibition, purified class II.

Test [6] addresses T5, HLA-DRw53 (DRB4*0101), purified from L257.6 transfected fibroblasts (human).
T5 chain 1: not shown
T5 chain 2: not shown
In words: 125I-peptide inhibition, purified class II.

Test [7] addresses T6, HLA-DR5 (DRB1*11011), purified from SWEIG cells (human).
T6 chain 1: not shown
T6 chain 2: not shown
In words: 125I-peptide inhibition, purified class II.

Test [8] has as its target T7, HLA-DR7 (DRB1*0701), purified from PITOUT cells (human).
T7 chain 1: not shown
T7 chain 2: not shown
The experiment in a line: 125I-peptide inhibition, purified class II.

For test [9], the target named is T8, HLA-DR4w4 (DRB1*0401), purified from PREISS cells (human).
T8 chain 1: not shown
T8 chain 2: not shown
In words: 125I-peptide inhibition, purified class II.

The target of test [10] is mouse class II IE^k, purified from CH12 cells (mouse). In words: 125I-peptide inhibition, purified class II.
Test [11] has as its target T9, mouse class II IA^b, purified from DB27.4 cells (mouse), P14434.
T9 chain 1: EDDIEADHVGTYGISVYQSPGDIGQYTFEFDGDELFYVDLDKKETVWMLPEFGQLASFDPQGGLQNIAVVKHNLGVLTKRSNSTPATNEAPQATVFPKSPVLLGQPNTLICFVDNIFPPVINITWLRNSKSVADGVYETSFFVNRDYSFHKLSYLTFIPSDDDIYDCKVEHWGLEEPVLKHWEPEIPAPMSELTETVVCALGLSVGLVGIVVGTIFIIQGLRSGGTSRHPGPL
T9 chain 2: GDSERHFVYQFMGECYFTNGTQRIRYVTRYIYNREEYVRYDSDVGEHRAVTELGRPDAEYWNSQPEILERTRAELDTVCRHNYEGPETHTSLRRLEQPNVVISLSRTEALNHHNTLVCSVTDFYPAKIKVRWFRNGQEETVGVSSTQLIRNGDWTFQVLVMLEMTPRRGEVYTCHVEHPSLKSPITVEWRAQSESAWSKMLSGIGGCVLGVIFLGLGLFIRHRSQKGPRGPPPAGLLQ
In words: 125I-peptide inhibition, purified class II.

B1: peptide 965.022, aK(14)…a-NH2 (peptide)
peptide: [dA]K[14]VKAWTLKAA[dA]-NH2
modifications: reading uncertain; also: printed as aK(14)VKAWTLKAAa-NH2
B1: the figures for the IC50 in test [1] and in test [2] were 1.1 nM and 0.8 nM, respectively.

B2: 906.18 (peptide)
peptide: [dA]A[Cha]AAKATLKAA[dA]-NH2
modifications: N-terminus assumed
SMILES: CC(C)C[C@H](NC(=O)[C@@H](NC(=O)[C@H](C)NC(=O)[C@H](CCCCN)NC(=O)[C@H](C)NC(=O)[C@H](C)NC(=O)[C@H](CC1CCCCC1)NC(=O)[C@H](C)NC(=O)[C@@H](C)N)[C@@H](C)O)C(=O)N[C@@H](CCCCN)C(=O)N[C@@H](C)C(=O)N[C@@H](C)C(=O)N[C@H](C)C(N)=O
B2: the fold decrease of binding activity vs 760.57 in test [3] came out at 8 fold.

B3: peptide 965.012, aK(14)…a-NH2 (peptide)
peptide: [dA]K[14]VKANTLKAA[dA]-NH2
modifications: reading uncertain; also: printed as aK(14)VKANTLKAAa-NH2
On to B3, for which the IC50 in [1] was 2.2 nM; in test [4], 4590 nM; in [2], 2.1 nM.

B4: 906.50 (peptide)
peptide: [dA]A[Cha]AAAATLKAF[dA]-NH2
modifications: N-terminus assumed
SMILES: CC(C)C[C@H](NC(=O)[C@@H](NC(=O)[C@H](C)NC(=O)[C@H](C)NC(=O)[C@H](C)NC(=O)[C@H](C)NC(=O)[C@H](CC1CCCCC1)NC(=O)[C@H](C)NC(=O)[C@@H](C)N)[C@@H](C)O)C(=O)N[C@@H](CCCCN)C(=O)N[C@@H](C)C(=O)N[C@@H](Cc1ccccc1)C(=O)N[C@H](C)C(N)=O
For B4, the fold increase in reactivity vs 760.57 came out at 8 fold in test [5] and 40 fold in test [6].

B5: 906.30 (peptide)
peptide: [dA]A[Cha]AAAATEKAA[dA]-NH2
modifications: N-terminus assumed
SMILES: C[C@H](NC(=O)[C@H](C)NC(=O)[C@H](C)NC(=O)[C@H](CC1CCCCC1)NC(=O)[C@H](C)NC(=O)[C@@H](C)N)C(=O)N[C@@H](C)C(=O)N[C@H](C(=O)N[C@@H](CCC(=O)O)C(=O)N[C@@H](CCCCN)C(=O)N[C@@H](C)C(=O)N[C@@H](C)C(=O)N[C@H](C)C(N)=O)[C@@H](C)O
Regarding B5, the fold loss of binding reactivity vs 760.57 was 8 fold in [3], 10 fold in test [7], 10 fold in [8] and 7 fold in test [9].

B6: 906.19 (peptide)
peptide: [dA]A[Cha]AAEATLKAA[dA]-NH2
Turning to B6, the concentration for half-maximal inhibition (IC50) in test [5] was 1500 nM.

B7: 906.20 (peptide)
peptide: [dA]A[Cha]AAQATLKAA[dA]-NH2
modifications: N-terminus assumed
SMILES: CC(C)C[C@H](NC(=O)[C@@H](NC(=O)[C@H](C)NC(=O)[C@H](CCC(N)=O)NC(=O)[C@H](C)NC(=O)[C@H](C)NC(=O)[C@H](CC1CCCCC1)NC(=O)[C@H](C)NC(=O)[C@@H](C)N)[C@@H](C)O)C(=O)N[C@@H](CCCCN)C(=O)N[C@@H](C)C(=O)N[C@@H](C)C(=O)N[C@H](C)C(N)=O
The molecule B7 showed a fold reduction of binding vs 760.57 in test [8] of 30 fold.

B8: peptide 965.011, aK(14)…a-NH2 (peptide)
peptide: [dA]K[14]VKANTLKAA[dA]-NH2
modifications: reading uncertain; also: printed as aK(14)VKANTLKAAa-NH2
Take B8: the results for the IC50 in [1] and in test [4] were 11.8 nM and 592 nM, respectively.

B9: peptide 965.031, aK(14)…a-NH2 (peptide)
peptide: [dA]K[14]VWANTLKAA[dA]-NH2
modifications: reading uncertain; also: printed as aK(14)VWANTLKAAa-NH2
As to B9, the IC50 in [1] is 8.3 nM; in test [2], 2.1 nM.

B10: 906.17 (peptide)
peptide: [dA]A[Cha]AFAATLKAA[dA]-NH2
modifications: N-terminus assumed
SMILES: CC(C)C[C@H](NC(=O)[C@@H](NC(=O)[C@H](C)NC(=O)[C@H](C)NC(=O)[C@H](Cc1ccccc1)NC(=O)[C@H](C)NC(=O)[C@H](CC1CCCCC1)NC(=O)[C@H](C)NC(=O)[C@@H](C)N)[C@@H](C)O)C(=O)N[C@@H](CCCCN)C(=O)N[C@@H](C)C(=O)N[C@@H](C)C(=O)N[C@H](C)C(N)=O
Regarding B10, the fold increase in binding vs 760.57 in test [5] lay within 2 to 4 fold. For the same molecule, the fold increase in reactivity vs 760.57 in test [6] stood at 100 fold.

B11: 906.04 (peptide)
peptide: [dA]V[Cha]AAAATLKAA[dA]-NH2
modifications: N-terminus assumed
SMILES: CC(C)C[C@H](NC(=O)[C@@H](NC(=O)[C@H](C)NC(=O)[C@H](C)NC(=O)[C@H](C)NC(=O)[C@H](C)NC(=O)[C@H](CC1CCCCC1)NC(=O)[C@@H](NC(=O)[C@@H](C)N)C(C)C)[C@@H](C)O)C(=O)N[C@@H](CCCCN)C(=O)N[C@@H](C)C(=O)N[C@@H](C)C(=O)N[C@H](C)C(N)=O
Turning to B11, the fold increase in reactivity vs 760.57 in test [5] was 3 fold; in test [6], 30 to 100 fold.

B12: 906.16 (peptide)
peptide: [dA]A[Cha]AVAATLKAA[dA]-NH2
modifications: N-terminus assumed
SMILES: CC(C)C[C@H](NC(=O)[C@@H](NC(=O)[C@H](C)NC(=O)[C@H](C)NC(=O)[C@@H](NC(=O)[C@H](C)NC(=O)[C@H](CC1CCCCC1)NC(=O)[C@H](C)NC(=O)[C@@H](C)N)C(C)C)[C@@H](C)O)C(=O)N[C@@H](CCCCN)C(=O)N[C@@H](C)C(=O)N[C@@H](C)C(=O)N[C@H](C)C(N)=O
In turn, B12 came in with a fold increase in binding vs 760.57 in test [5] of 2 to 4 fold. This molecule also returned a fold increase in reactivity vs 760.57 in test [6] of 100 fold.

B13: 1024.03 (peptide)
peptide: AKFVAAWTLKAAA
modifications: not checked
In the case of B13, the IC50 came out at 3500 nM in [10], 18 nM in [7] and 2 nM in test [9].

B14: peptide 965.032, aK(14)…a-NH2 (peptide)
peptide: [dA]K[14]VWANTLKAA[dA]-NH2
modifications: reading uncertain; also: printed as aK(14)VWANTLKAAa-NH2
As to B14, the IC50 turned out to be 2.9 nM in [1], 849 nM in test [4] and 0.7 nM in test [2].

B15: 760.50 (peptide)
peptide: [dA]A[Cha]AAAKTAAAA[dA]
For B15, the results for the IC50 in [11] and in test [7] were 200 nM and 6.1 nM, respectively.
